To fix the notation:
B1: unnamed (parent)
chain 1: MSAAILLAPGDVIKRSSEELKQRQIQINLVDWMESEGGKEDKTEPKEESKAEGSKDGEGTQSESGQKEEGGKETKDADVDRRIHTAVGSGSGTKGSGERANENANRGDGKVGGGGGDADAGVGATGTNGGRWVVLTEEIARAIESKYGTKIDVYRDEVPAQIIEVERSLQKELGISREGVAEQTERLRDLRRKEKNGTHAKAVERGGRKQRKKAHGDAQREGVEEEKTSEEPARIGITIEGVMSQKKLLSMIGGVERKMAPIGARESAVMLVSNSIKDVVRATAYFTAPTGDPHWKEVAREASKKKNILAYTSTGGDVKTEFLHLIDHL
chain 2: MAAQNEQRPERIKTTPYLEGDVLSSDSGPLLSVFALQEIMQKVRQVQADYMTATREVDFTVPDVQQILDDIKALAAAQVYKIVKVPSTSFRHIVTQSRDRVLRVDTYYEEMSQVGDVITEDEPEKFYSTIIKKVRFIRGKGSFILHDIPARDHRGMEVAEPEVLGVEFKNVLPVLTAEHRAMIQNALDGSIIENGNVATRDVDVFIGACSEPFYRIYNRFQGYIEAVQLQELRNSIGWLERLGQRKRITYSQEVLTDFRRQDMIWVLALQLPVNPQVVWDVPRSSIANLIMNIATCLPTGEYIAPNPRISSITLTQRITTTGPFAILTGSTPTAQQLNDVRKIYLALMFPGQIILDLKIDPGERMDPAVRMVAGVVGHLLFTAGGRFTNLTQNMARQLDIALNDYLLYMYNTRVQVNYGPTGEPLDFQIGRNQYDCNVFRADFATGTGYNGWATIDVEYRDPAPYVHAQRYIRYCGIDSRELINPTTYGIGMTYHCYNEMLRMLVAAGKDSEAAYFRSMLPFHMVRFARINQIINEDLHSVFSLPDDMFNALLPDLIAGAHQNADPVVLDVSWISLWFAFNRSFEPTHRNEMLEIAPLIESVYASELSVMKVDMRHLSLMQRRFPDVLIQARPSHFWKAVLNDSPEAVKAVMNLSHSHNFINIRDMMRWVLLPSLQPSLKLVLEEEAWAAANDFEDLMLTDQVYMHRDMLPEPRLDDIERFRQEGFYYTNMLEAPPEIDRVVQYTYEIARLQANMGQFRAALRRIMDDDDWIGFGGVLRTVRVKFFDARPPDDILQGLPFSYDTNEKGGLSYATIKYATETTIFYLIYNVEFSNTPDSLVLINPTYTMTKVFINKRIVERVRVGQILAVLNRRFVAYKGKMRIMDITQSLKMGTKLAAPTV
B2: unnamed (parent)
chain 1: B1 chain 2
chain 2: B1 chain 1

Results on 14 variants are retold here after article PMC5774872.

Variants of B1 are the subject of the first assay. Nature of the assay: coimmunoprecipitation (IP anti-HA MAb), immunoblot gray-value analysis. As to conditions: with partner chain of the complex shown, five experiments, means ± SDs, parent: 100, read off a plot.
With chain 1 F286A, the percent of parent was 18 % of WT.

Turning to chain 1 R281A, the percent of parent was 100 % of WT.

Consider chain 1 A282G A284G, for which the percent of parent is 42 % of WT.

Consider chain 1 Y285A, for which the percent of parent is 7 % of WT.

For chain 1 R281A F286A, the percent of parent is 1 % of WT.

On to chain 1 Y285A F286A, for which the percent of parent is 2 % of WT.

Variants of B2 are the subject of the next assay. Nature of the assay: coimmunoprecipitation (IP anti-Flag MAb), immunoblot gray-value analysis. The conditions noted are these: with partner chain of the complex shown, five experiments, means ± SDs, parent: 100, read off a plot. In general terms: In western blotting, separated proteins are transferred to a membrane and probed.
With chain 2 Y285A, the percent of parent was 1 % of WT.

Consider chain 2 R281A Y285A, for which the percent of parent was 4 % of WT.

Turning to chain 2 R281A F286A, the percent of parent is 19 % of WT.

For the variant chain 2 R281A Y285A F286A, the percent of parent was 2 % of WT.

Take chain 2 R281A: the percent of parent was 130 % of WT.

On to chain 2 Y285A F286A, for which the percent of parent is 2 % of WT.

In the case of chain 2 F286A, the percent of parent is 57 % of WT.

Regarding chain 2 A282G A284G, the percent of parent is 45 % of WT.
